One may read the stoichiometry N as the number of molecules, sites or subunits per partner or assembly.

Consider 1 substance from PMC9900762.

For the experiment, the target named is P. falciparum cytochrome c-2 (PF3D7_1311700), recombinant (P. falciparum) (UniProt Q8I6T6). Kind of experiment: crystal structure.

Regarding “P. falciparum cytochrome c-2 (PF3D7_1311700), recombinant (from UniProt Q8I6T6 1-159) (natural protein)”, the stoichiometry N was determined as 2.
